In the nanobody polyreactivity screen of Harvey et al. (2022):

Assay: yeast display, Sf9 membrane polyspecificity reagent, FACS + sequencing; frameworks hold sequencing errors
How it was run: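 After 36–48 hours of galactose induction, yeast (Saccharomyces cerevisiae BJ5465) displaying a synthetic nanobody library were stained at 4 °C for 1 hour with 10% biotinylated, detergent-solubilized Sf9 membrane reagent. Streptavidin microbeads enriched the stained cells before FACS sorting into low and high (top ~1%) gates on anti-HA and streptavidin fluorescence. Each clone's polyreactivity label reflects its gate of origin.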

| Sequence | polyreactivity (PSR sort gate) |
| --- | --- |
| QVQLVESGGGLVHAGGSLRLSCAASGSTFDRNAMGWARQAPGKDMELVDAISRSGGSTNYADSVKGRFTISRDNAKNTVYLQMNSLKPEDTAVYYCAAVRPLWYGQGWALYWFEYWGQGTQVTVSS | low polyreactivity |
| QVQLVESGGGLVHAGGSLRLSCAASGSTFIRNAMGWYRQAPGKERELVAAISSSGGRTYYADSVKGRFTISRDNAKNTVYLQMNSLKPEDTAVYYCAARYVPPWGRRYYYWGQGTQVTVSS | high polyreactivity |
| QVQLVESGGGLVHAGGSLRLSCAASGSTFNRYAMGWYRQAHGKERELVASISWGGGRTYYADSVKGRFTISRDNEKNTVYLLMNSLKPEDTAVYYCATDRYYRHYEVDYWGQGTQVTVSS | low polyreactivity |
| QVQLVESGGGLVHAGGSLRLSCAASGSTFPRNDMGWYRQAPGKERELVAAISRGGSTNYADSVKGRFTISRDNAKNTVYLQMNSLKPEDTAVYYCAAQIFESAYGMDYWGQGTQVTVSS | low polyreactivity |
| QVQLVESGGGLVHAGGSLRLSCAASGSTFWANAMGWYRPPPGKERELVAAITSTGITYYADSVKGRFTISRDNAKNTVYLQMNSLKPEDTAVYYCAADGFRYSVYLIRNPMDYWGQGTQVTVSS | low polyreactivity |
| QVQLVESGGGLVHAGGSLRLSCAASGSTSGIYAMGWYRQAPGKERELVAAIDTSGGSTYADSLKGRFTISRDNAKYTVYLQMNSLKPEDTAGYYCAKPFSSNSWSHGYWGQGTQVTVSS | low polyreactivity |
| QVQLVESGGGLVHAGGSLRLSCAASGYSSSQNAMVWYRQEPGKERELLARITTDGTSTYYADSVKGRFTISRDNAKNTVYLHMNSLKPEDTAVYYCNARYPAYVVRSWYPYAYYYWGQGTQVTVSS | low polyreactivity |
| QVQLVESGGGLVHAGGSLRLSCAAWSIFYLNAMGWYRQAPGKERELVAAISSAGSTYYADSVKGRFTISRDNAKNTVYLQMNSLKPEDTAVYYCAAYWYDSPGVTEIWYDYWGQGTQVTVSS | low polyreactivity |
| QVQLVESGGGLVHAGGSLRLSCAAYGSIFNYYAMGWYRQAPGKERVFVADISGSGSSTYYADSVKGRFTISRDNAKNTFYLQKNSLKPEDTAVYYCNAEYYWGVGYYPYSDYGYWGQGTQVTVSS | low polyreactivity |
| QVQLVESGGGLVHAGGSLRLSCASSGFTYSQYVMGWYRQAPGKERELVASITGNGGSTRYADSVKGRFTISRDNANKTVYLQMNCLKPEDTAVYYCDTRVKFSTSYWLYYWGQGTQVTVSS | high polyreactivity |
| QVQLVESGGGLVHAGGSLRLSCASSGRTFAYSAMGWYRQAPGIERELVATITSAGSTNYADSVKGRFTISRDNAKNTVYLQMNSLKPEDTAVYYCNRRVWGSSRLKYNYWGQGTQVTVSS | high polyreactivity |
| QVQLVESGGGLVHAGGSLRLSCASSGSTFAQYALGWYRPAPGKDREFVAAITRGGGRTYYADSVNGRFTISRDNAKYSVYLQMNSLKPEVTAVYYCNAVYRYYPFDYWGQGTQVTVSS | high polyreactivity |
| QVQLVESGGGLVHAGGSLRLSCASSGSTFVLYAMGWYRQAPGKERELVAVISWSGGSTYYADSVKGRFTISRDNAKNTVYLQLYSLKPEDTAVYYCAKRYRVSYYPYADPYGYWGQGTQVNVSS | low polyreactivity |
| QVQLVESGGGLVHAGGSLRLSCSASGSTFGPYAMGWYRQAPGKERELVAAISSRGARTYYADSVKGRFTISRDNAKNTVYLQMNSLKPEDTAVYYCANTYHGTAYDYWGQGTQVTVSS | high polyreactivity |
| QVQLVESGGGLVHAGGSLRLTCAASGSISSFYAMGWYRQEPGKERELVAGITSGGSTNYADSVKGRFTISRDNAKNTVYLQMNSLKAEDTAVYYCAAVYKCAGTHFDVFVKEFDYWGQGTQVTVSS | low polyreactivity |
| QVQLVESGGGLVHEGGSLRLIFAASGRIFGPNHMGWYRQAPGKERELVAAITDSCDITYYADSVKGRFTISRDNAKNTVYLQMNSLKPQDTAVYYCAADHTYENEYWGQGTQVNVSS | low polyreactivity |
| QVQLVESGGGLVHSGGSLRLSCAASGSIFDYYAMGLYRQAPGKERELVAAISWRGGTTYYADSVKGRFTISRDNANNTVFLQMNRLKPEYTAVYYCNADKRFRRYDYWGQGNQVTVSS | high polyreactivity |
| QVQLVESGGGLVKAGGSLRLRGAASGSIFGRYAMGWYRQAPGKERELVAAISKNGGSTYYADSVKGRFTISRDNAKNTVYLQMNILKPEDTAVYYCNTVRYSGNYRDQEGDYWGQGTQVTVSS | high polyreactivity |
| QVQLVESGGGLVKAGGSLRLSCAASGFIFRTYAMGWYRQAPRKERELVAAITGRGGTTYYADSVKGRFTISRDHAKNTVYLQMNSLKAEDTAVYYCADRSRDYNYNPYDYWGLGTQVTVSS | high polyreactivity |
| QVQLVESGGGLVKAGGSLRLSCAASGIIFSFYTMGWYRQAPGKQRELVAAITWSGGSTYYADSVKGRFTISRDNAKNTVYLQMNSLKPEDTAVYFCNARYPWRKRSQGYSWGQGTQVTVSS | low polyreactivity |
| QVQLVESGGGLVKAGGSLRLSCAASGITFLYYAMACYRQAPGKERELVAAISTSGGSTYYSDSVKGRFTISRDNAKNTVYLQMNSLKPEDTAVYYCAKSVGVGGEDRVGSWGQGTQVTVSS | low polyreactivity |
| QVQLVESGGGLVKAGGSLRLSCAASGLTLPANAMGWYRQAPGKEREFVAAISVGGDTTSYADSVKGRFTISRDNAKNTVYLQMNSLKPEDTAVYYCAADEIHDPRTYRGSAGDYWGQGTQVTVSS | low polyreactivity |

| Sequence | polyreactivity (PSR sort gate) |
| --- | --- |
| QVQLVESGGGLVKAGGSLRLSCAASGRIFNWYAMGWYRQAPGKEREFVAAITFSGGSTYYADSVKGRFTISRDNAKNTVYLQMNSLKPEDTAVYYCAAEIYFFVSYDYWGQGTQVTVSS | low polyreactivity |
| QVQLVESGGGLVKAGGSLRLSCAASGRIFVFNAMGWYRQAPGKERELVAAITSAGSTYYADSVKGRFTISRDNAKNTVYLQMNSLIPEDTAVYYCAAGSRRYRDDYWGQGTQVNVSS | low polyreactivity |
| QVQLVESGGGLVKAGGSLRLSCAASGRTFALYAMGWYRLAPGKERELVAGITFRGGSTYYADSVKGRFRISRDNAKNTVYLQMNSLKPEDTAVYYCAAERWRWYYSWTMDYWGQGTQVTVSS | high polyreactivity |
| QVQLVESGGGLVKAGGSLRLSCAASGRTFRYNAMGWYRQPPGKERELVAVINSNGGSTYYADSVKGRFTISRDNAKNTVYLQMNSLKPEDTAVYYCAADYIRIQEYDYWGQGTQVTVSS | low polyreactivity |
| QVQLVESGGGLVKAGGSLRLSCAASGSIFPFYAMGSYRQAPGKERELVATISWSGGRTYYADSVKGRFTISRDNAKNTVYLQMNSLKPEDTAVYYCAAGSYHYPNAYYYWGQGTQVTVSS | high polyreactivity |
| QVQLVESGGGLVKAGGSLRLSCAASGSIFRYYAMGWYRQAPGKERELVASITNGGSTNYADSVKGRFTISRDNAKNTVYLQMNSLKPEDTAVYYCAARYLYYTPPPRRYYYWAQGTQVTVSS | high polyreactivity |
| QVQLVESGGGLVKAGGSLRLSCAASGSSLRYNAMGWYRQAPGKERELVAAISWGGGRTHYADSVKGRFTISRDNAKNSVYLQMNSLKPEDTAVYYCNGVSVRYLYYYWGQGTQVTVSS | high polyreactivity |
| QVQLVESGGGLVKAGGSLRLSCAASGSTFSRNTMGWYRQAPGKERELVAAITKSAVSTYYADTVTGRFTISRDNAKNTDYLEMNSLKPEDTAVYYSAKVYRTSTSKAYDYWGQGTKVTVSS | high polyreactivity |
| QVQLVESGGGLVKAGGSLRLSCAASGSTFSRYAKGWYRQAPGKEREFVAAISKSGGGTYYADSVKGRFTISRDNAKNTVYLQMNSMKPEETAVYYCARRVRYKHYDYWGQGSQVTVSS | high polyreactivity |
| QVQLVESGGGLVKAGGSLRLSCAASGSTLDPNVMGWYRQAPGKERELVAAITSGGSTYYADSVKGRFTISRDNAKNTVYLQMNSLKPEDTAVYYCAADSHGHVFYSWYDYWGQGTQVTVSS | low polyreactivity |
| QVQLVESGGGLVKAGGSLRLSCAAYGFTIVYYAMGWYIQEHGKERELVAAISATGGRTYYADSVKGRFTISRDNAKNTVYLQMNSLKPEDTAVYYCATRRRVLYGYDYWGQGTQVTVSS | high polyreactivity |
| QVQLVESGGGLVKAGGSLRLSCCASGFTFTGYAMGWYRQAPGKEWELVAAITRGGGSTYYADSVKGRFTISRDNAKNTVYLQMNSLKREDTAVYYCAAQGSRLIRISSPYYGHDYWGQGTQVTVSS | low polyreactivity |
| QVQLVESGGGLVKEGGSLRLSCAASGSIFLQYAMGWYRQAPGKERELVAGISLRGCSTYYADSVKGRFTISRHNAKNTVYLQLNSLKPEDTAVYYCAADVIVTVETYTSGPSFTEYDYWGQGTQVTVSS | low polyreactivity |
| QVQLVESGGGLVLAGGILRLSCAASGSTFYAYAMGWYRQAPGKERELVAAIDSGGSTYYADSVKGRFTISRDNAKNTVYLQMNSLKPEDTAVYYCAVRHRYTRAYWGRDYWGQGSQVTVSS | low polyreactivity |
| QVQLVESGGGLVLAGGRLRLSCAASGFTFGPYAMGWSRQAPGKERELVAAISQSGGRTSYAVSVKGRFTISRDNGKNTVYLQMNSLKPEDTAVYYCAKRANGYRSIYRMDYWGQGTQVTVSS | high polyreactivity |
| QVQLVESGGGLVLAGGSLRLSCAASGFTFPHYAMGWYRQAPGKERELVAVISWSGSSTYYADSVKGRFTISRDNAKNTVYLQMNSLKPEDTAVYYCNTRKLYQVDYDYWGQGTQVTVSS | high polyreactivity |
| QVQLVESGGGLVLAGGSLRLSCAASGGIFYGYAMGWYREAPGKEREMVAAISSTGGRTYYADSVKGRFTISRDNAKNTVYLQMNSLKPEETAVYYCAAEDFTRQFEYWGQGTQVTVSS | low polyreactivity |
| QVQLVESGGGLVLAGGSLRLSCAASGHIFFYYTMGWYRQSPGKERELVAGITIGGSTNYADSVKGLFTISRDNAKNTVYLQMISLKPEDTAVYYCNVVKYVYIYSYWEYYYWGQGTQVTVSS | low polyreactivity |
| QVQLVESGGGLVLAGGSLRLSCAASGRSSSSYAMGWYRQAPGKEREFVAAIRSSGGSTSYADSVKGRFTISRDNAKNTVYLQMNSLKPEDTAVYYCAVRKHFVVSYDYWGQGTQVTVSS | high polyreactivity |
| QVQLVESGGGLVLAGGSLRLSCAASGSIFSLYAMGWYRQAPGKEREVVAALSRGGSTNYADSVKGRFTISRDTAKNTVYLQMNCLKPEDTAVYYSNAGFGVRRKHITVYTWYDYWGQGTQVTVSS | low polyreactivity |
| QVQLVESGGGLVLAGGSLRLSCAASGSNFSPNAMGWYRKAPGKERELVAAITYRGANTYYADSVKGRFTISRDYAKNTVYFLMNSLKPEDTAVYFCAAEYAYHHVGFGYWGQGTQVTVSS | low polyreactivity |
